Results as given in US20020160000A1 (Dana-Farber, published 2002).

Legend:
[1] = target: T1, soluble human B7-4.Ig / B7-4-Fc fusion protein (Example 11) (human, UniProt Q9NZQ7 19-238); assay: BIACORE, PD-1-Fc immobilized, concentrated COS cell medium injected
T1 construct: not shown: Fc/Ig portion

[2] = target: T2, human B7-4M (B7-4 membrane form) expressed on transfected COS or CHO cells (human, UniProt Q9NZQ7 19-290); assay: flow cytometry on human B7-4 CHO cells
T2 construct: Cell-surface form on transiently transfected COS cells or on CHO transfectants; also called B7-4M (292); COS cells expressing B7-4M
T2 sequence (Q9NZQ7 19-290): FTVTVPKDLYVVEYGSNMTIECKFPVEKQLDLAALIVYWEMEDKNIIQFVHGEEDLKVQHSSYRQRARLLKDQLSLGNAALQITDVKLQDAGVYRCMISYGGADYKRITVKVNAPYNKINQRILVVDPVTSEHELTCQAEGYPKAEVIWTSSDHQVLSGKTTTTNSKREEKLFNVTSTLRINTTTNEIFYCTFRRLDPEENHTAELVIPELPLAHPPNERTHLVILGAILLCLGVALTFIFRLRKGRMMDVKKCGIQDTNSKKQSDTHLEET

[3] = target: T3, human PD-1-Fc (extracellular region of human PD-1 fused to hinge-CH2-CH3 of human immunoglobulin gamma 1) (human, UniProt P01857 99-330 = IgG part); assay: BIACORE, PD-1-Fc immobilized
T3 construct: domain: hinge-CH2-CH3; also called PD-1-Fc (human Ig gamma1); Human PD-1 linked to IgG1
T3 sequence (P01857 other isoform, or with tags, fused parts or gaps limits assumed): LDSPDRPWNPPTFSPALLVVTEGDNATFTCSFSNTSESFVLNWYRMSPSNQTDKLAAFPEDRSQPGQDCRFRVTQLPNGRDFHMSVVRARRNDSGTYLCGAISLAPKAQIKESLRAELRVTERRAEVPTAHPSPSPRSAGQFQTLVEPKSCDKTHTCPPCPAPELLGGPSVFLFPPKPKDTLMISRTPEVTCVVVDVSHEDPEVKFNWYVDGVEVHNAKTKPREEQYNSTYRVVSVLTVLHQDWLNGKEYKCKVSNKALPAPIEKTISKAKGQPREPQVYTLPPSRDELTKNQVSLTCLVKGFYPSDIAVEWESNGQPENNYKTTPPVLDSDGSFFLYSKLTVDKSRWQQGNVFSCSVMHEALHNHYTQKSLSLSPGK

[4] = target: T2, human B7-4M (B7-4 membrane form) …; assay: FACS on B7-4M-transfected COS cells
Protocol: COS cells were transfected with either vector DNA (pcDNAI), or an expression plasmid containing the B7-4M cDNA. After 72 hours, the transfected COS cells were detached by incubation in PBS containing 0.5 mM EDTA for 30 min. at 37° C.
The ability of COS cells expressing B7-4M to bind to various T cell receptors and antibodies was tested. […] The ability of COS cells expressing B7-4M to bind to IgG and murine ICOS-his fusion protein was also tested.

T1 sequence (Q9NZQ7 19-238): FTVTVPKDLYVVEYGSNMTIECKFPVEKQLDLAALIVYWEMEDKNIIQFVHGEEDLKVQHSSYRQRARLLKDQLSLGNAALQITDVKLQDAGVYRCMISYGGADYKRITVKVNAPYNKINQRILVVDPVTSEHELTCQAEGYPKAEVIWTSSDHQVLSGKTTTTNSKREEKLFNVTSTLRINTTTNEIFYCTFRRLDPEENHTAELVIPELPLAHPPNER

B1: murine PD-1-Fc / murine PD-1.Ig fusion protein (Fc fusion, UniProt Q02242 25-169, looked up)
chain: LEVPNGPWRSLTFYPAWLTVSEGANATFTCSLSNWSEDLMLNWNRLSPSNQTEKQAAFCNGLSQPVQDARFQIIQLPNRHDFHMNILDTRRNDSGIYLCGAISLHPKAKIEESPGAELVVTERILETSTRYPSPSPKPEGRFQGM
notes: also called mouse PD-1; not shown: Fc/Ig portion
B1: binds [1]; binds [2].

B2: soluble form of human B7-1 (ligand)
chain: VIHVTKEVKEVATLSCGHNVSVEELAQTRIYWQKEKKMVLTMMSGDMNIWPEYKNRTIFDITNNLSIVILALRPSDEGTYECVVLKYEKDAFKREHLAEVTLSVKADFPTPSISDFEIPTSNIRRIICSTSGGFPEPHLSWLENGEELNAINTTVSQDPETELYAVSSKLDFNMTTNHSFMCLIKYGHLRVNQTFNWNTTKQEHFPDN
notes: also called soluble forms of B7-1
B2: no binding [3].

B3: soluble form of human B7-2 (ligand)
chain: APLKIQAYFNETADLPCQFANSQNQSLSELVVFWQDQENLVLNEVYLGKEKFDSVHSKYMGRTSFDSDSWTLRLHNLQIKDKGLYQCIIHHKKPTGMIRIHQMNSELSVLANFSQPEIVPISNITENVYINLTCSSIHGYPEPKKMSVLLRTKNSTIEYDGVMQKSQDNVTELYDVSISLSVSFPDVTSNMTIFCILETDKTRLLSSPFSIELEDPQPPPDHIP
notes: also called soluble forms of B7-2
B3: no binding [3].

B4: murine ICOS-his fusion protein (receptor, UniProt Q9WVS0 21-144, looked up)
chain: EINGSADHRMFSFHNGGVQISCKYPETVQQLKMRLFREREVLCELTKTKGSGNAVSIKNPMLCLYHLSNNSVSFFLNNPDSSQGSYYFCSLSIFDPPPFQERNLSGGYLHIYESQLCCQLKLWL
notes: not shown: his tag
B4: no binding [4].
